According to IntAct's records for PubMed 19234114:

B1: Ferroportin (Mus musculus), Q9JHI9 (parent)
chain: MTKARDQTHQEGCCGSLANYLTSAKFLLYLGHSLSTWGDRMWHFAVSVFLVELYGNSLLLTAVYGLVVAGSVLVLGAIIGDWVDKNARLKVAQTSLVVQNVSVILCGIILMMVFLHKNELLTMYHGWVLTVCYILIITIANIANLASTATAITIQRDWIVVVAGENRSRLADMNATIRRIDQLTNILAPMAVGQIMTFGSPVIGCGFISGWNLVSMCVEYFLLWKVYQKTPALAVKAALKVEESELKQLTSPKDTEPKPLEGTHLMGEKDSNIRELECEQEPTCASQMAEPFRTFRDGWVSYYNQPVFLAGMGLAFLYMTVLGFDCITTGYAYTQGLSGSILSILMGASAITGIMGTVAFTWLRRKCGLVRTGLFSGLAQLSCLILCVISVFMPGSPLDLSVSPFEDIRSRFVNVEPVSPTTKIPETVFTTEMHMSNMSNVHEMSTKPIPIVSVSLLFAGVIAARIGLWSFDLTVTQLLQENVIESERGIINGVQNSMNYLLDLLHFIMVILAPNPEAFGLLVLISVSFVAMGHLMYFRFAQKTLGNQIFVCGPDEKEVTDENQPNTSVV

Variants of: B1
Settings: with jak2_human JAK2, O60674
jak2_human JAK2, O60674, sequence (O60674 whole entry): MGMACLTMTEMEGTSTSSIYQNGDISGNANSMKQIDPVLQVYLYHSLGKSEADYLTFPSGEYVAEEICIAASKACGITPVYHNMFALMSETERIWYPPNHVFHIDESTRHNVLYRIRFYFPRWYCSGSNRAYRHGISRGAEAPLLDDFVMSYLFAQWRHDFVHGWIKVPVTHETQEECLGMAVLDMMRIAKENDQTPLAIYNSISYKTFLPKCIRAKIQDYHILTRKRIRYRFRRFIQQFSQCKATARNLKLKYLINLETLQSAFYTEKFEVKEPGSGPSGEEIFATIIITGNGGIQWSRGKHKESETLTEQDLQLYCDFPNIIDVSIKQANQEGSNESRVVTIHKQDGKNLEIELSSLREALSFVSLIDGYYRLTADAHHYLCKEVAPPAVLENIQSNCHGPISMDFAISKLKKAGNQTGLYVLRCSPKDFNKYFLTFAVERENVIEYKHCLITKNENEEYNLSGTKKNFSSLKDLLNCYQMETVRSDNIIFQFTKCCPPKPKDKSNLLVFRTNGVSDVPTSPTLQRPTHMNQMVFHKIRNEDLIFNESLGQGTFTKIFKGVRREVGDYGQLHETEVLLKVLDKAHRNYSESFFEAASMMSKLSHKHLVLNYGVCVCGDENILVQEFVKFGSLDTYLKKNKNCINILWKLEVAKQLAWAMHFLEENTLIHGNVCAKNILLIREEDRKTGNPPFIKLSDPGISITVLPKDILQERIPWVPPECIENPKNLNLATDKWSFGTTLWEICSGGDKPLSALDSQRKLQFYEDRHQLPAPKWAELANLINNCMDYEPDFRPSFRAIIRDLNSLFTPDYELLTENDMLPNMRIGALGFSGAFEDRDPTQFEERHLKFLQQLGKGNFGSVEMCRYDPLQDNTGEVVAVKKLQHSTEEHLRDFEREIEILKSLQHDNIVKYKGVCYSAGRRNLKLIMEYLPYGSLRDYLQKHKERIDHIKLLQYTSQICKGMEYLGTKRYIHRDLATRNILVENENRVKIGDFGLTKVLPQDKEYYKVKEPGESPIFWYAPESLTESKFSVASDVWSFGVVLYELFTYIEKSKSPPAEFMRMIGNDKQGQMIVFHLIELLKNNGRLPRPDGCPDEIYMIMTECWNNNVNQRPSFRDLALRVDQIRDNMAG

effect of a mutation on the interaction	Variant
disrupting interaction	MTKARDQTHQEGCCGSLANYLTSAKFLLYLGHSLSTWGDRMWHFAVSVFLVELYGNSLLLTAVYGLVVAGSVLVLGAIIGDWVDKNARLKVAQTSLVVQNVSVILCGIILMMVFLHKNELLTMYHGWVLTVCYILIITIANIANLASTATAITIQRDWIVVVAGENRSRLADMNATIRRIDQLTNILAPMAVGQIMTFGSPVIGCGFISGWNLVSMCVEYFLLWKVYQKTPALAVKAALKVEESELKQLTSPKDTEPKPLEGTHLMGEKDSNIRELECEQEPTCASQMAEPFRTFRDGWVSYYNQPVFLAGMGLAFLYMTVLGFDYITTGYAYTQGLSGSILSILMGASAITGIMGTVAFTWLRRKCGLVRTGLFSGLAQLSCLILCVISVFMPGSPLDLSVSPFEDIRSRFVNVEPVSPTTKIPETVFTTEMHMSNMSNVHEMSTKPIPIVSVSLLFAGVIAARIGLWSFDLTVTQLLQENVIESERGIINGVQNSMNYLLDLLHFIMVILAPNPEAFGLLVLISVSFVAMGHLMYFRFAQKTLGNQIFVCGPDEKEVTDENQPNTSVV [C326Y]
